Source: publication PMC10115451 (eLife, 2023)

How the values were obtained:
[1] = target: T1, ANDV Gn/Gc (Andes virus glycoproteins from the full-length M segment, on the cell surface) (Andes virus, GenBank AF291703.2 …, UniProt Q9E006); assay: flow cytometry on cells; conditions: one partner purified
T1 construct: source: Expi293F cells, transfected, on the cell surface

[2] = target: MAPV Gn^H/Gc (linked Maporal virus Gn head domain and Gc ectodomain) (Maporal virus, strain HV-97021050, UniProt Q5MYC0); assay: ELISA; conditions: both partners purified
[3] = target: T2, ANDV Gc (Andes virus Gc ectodomain) (Andes virus, NP_604472.1 (Chile-9717869), UniProt Q9E006); assay: ELISA; conditions: both partners purified
T2 construct: source: Drosophila S2 cells, purified

[4] = target: T3, ANDV Gn^B (Andes virus Gn base domain) (Andes virus, NP_604472.1 (Chile-9717869), UniProt Q9E006); assay: ELISA; conditions: both partners purified
T3 construct: source: Drosophila S2 cells, purified
T3 sequence (Q9E006 375-484): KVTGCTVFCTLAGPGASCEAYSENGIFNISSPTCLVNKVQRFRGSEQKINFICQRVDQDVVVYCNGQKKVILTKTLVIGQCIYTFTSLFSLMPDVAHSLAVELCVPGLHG

T1 sequence (Q9E006 whole entry, looked up): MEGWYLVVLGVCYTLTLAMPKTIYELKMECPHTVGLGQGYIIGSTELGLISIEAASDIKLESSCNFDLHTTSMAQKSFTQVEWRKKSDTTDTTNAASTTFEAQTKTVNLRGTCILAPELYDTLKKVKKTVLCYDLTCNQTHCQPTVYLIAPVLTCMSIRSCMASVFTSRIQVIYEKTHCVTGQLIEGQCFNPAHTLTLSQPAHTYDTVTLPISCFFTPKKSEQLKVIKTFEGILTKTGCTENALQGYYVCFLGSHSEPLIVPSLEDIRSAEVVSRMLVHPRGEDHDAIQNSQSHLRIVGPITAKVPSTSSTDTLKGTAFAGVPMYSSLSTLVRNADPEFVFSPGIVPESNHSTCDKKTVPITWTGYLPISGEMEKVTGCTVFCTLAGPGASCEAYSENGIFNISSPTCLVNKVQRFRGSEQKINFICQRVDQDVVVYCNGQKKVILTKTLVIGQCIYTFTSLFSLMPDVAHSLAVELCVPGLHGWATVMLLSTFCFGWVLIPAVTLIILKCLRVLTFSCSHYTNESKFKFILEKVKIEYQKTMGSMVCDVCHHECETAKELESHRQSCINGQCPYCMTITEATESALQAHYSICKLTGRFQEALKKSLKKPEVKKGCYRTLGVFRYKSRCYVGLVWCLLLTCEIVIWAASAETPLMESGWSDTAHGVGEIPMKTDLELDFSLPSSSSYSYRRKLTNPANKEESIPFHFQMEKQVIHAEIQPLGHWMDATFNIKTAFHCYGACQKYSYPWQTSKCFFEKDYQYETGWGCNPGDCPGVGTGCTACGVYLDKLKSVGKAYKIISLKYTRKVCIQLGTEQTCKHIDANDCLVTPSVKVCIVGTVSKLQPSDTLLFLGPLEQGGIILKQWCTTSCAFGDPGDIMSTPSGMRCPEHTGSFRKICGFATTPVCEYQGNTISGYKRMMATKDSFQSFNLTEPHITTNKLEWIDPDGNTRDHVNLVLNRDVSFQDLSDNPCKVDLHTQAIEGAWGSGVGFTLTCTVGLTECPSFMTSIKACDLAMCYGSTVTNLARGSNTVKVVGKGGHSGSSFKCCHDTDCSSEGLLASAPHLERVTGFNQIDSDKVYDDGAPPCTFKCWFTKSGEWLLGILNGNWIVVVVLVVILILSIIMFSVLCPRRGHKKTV
T2 sequence (Q9E006 652-1107): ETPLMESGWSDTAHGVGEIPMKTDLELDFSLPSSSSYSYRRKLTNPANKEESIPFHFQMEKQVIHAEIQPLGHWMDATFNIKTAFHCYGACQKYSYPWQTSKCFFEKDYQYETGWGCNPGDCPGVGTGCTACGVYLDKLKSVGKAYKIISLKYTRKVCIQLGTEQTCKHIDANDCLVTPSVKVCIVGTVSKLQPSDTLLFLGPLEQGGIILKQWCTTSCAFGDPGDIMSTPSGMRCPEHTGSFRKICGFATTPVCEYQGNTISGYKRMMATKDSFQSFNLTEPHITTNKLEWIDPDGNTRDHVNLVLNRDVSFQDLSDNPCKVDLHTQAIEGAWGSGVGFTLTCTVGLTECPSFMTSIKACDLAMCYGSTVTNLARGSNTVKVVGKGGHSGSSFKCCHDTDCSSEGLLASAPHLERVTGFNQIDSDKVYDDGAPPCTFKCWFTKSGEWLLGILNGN

B1: ANDV-34 (human monoclonal antibody, IgG1) (antibody, V domains shown)
VH: QVHLVQSGGELRKPGSSVKVSCKASGGTFSSFAITWLRQAPGQGLEWVGAYIPVFGSAIHGQKVHGRVTLTADESTTTAYMELSSLRSEDTAVYFCARGPTQNWEYSYYTYFESWGQGTLVTVSS
VL: QIVLTQSPGTLSLSPGERATLSCRASQSVTSRYLAWYQQKPGQAPRLLIYDTSSRATGIPDRFSGSGSETDFTLTISRLAPEDFAVYYCQQYGTSPAVTFGQGTRLEIK
notes: also called rANDV-34; source: ExpiCHO cells, transiently transfected, purified (HiTrap MabSelectSure); copies: 2 + 2
- binding result [1]: binds
- binding result [2]: no binding
- binding result [3]: no binding
- binding result [4]: no binding

B2: ANDV-5 (human monoclonal antibody, IgG1) (antibody, V domains shown)
VH: QVQLLQSGAEVKKPGSSVRVSCQSSGDIYNYYGISWVRQAPGQGLEWMGGIIPVYGRPNYVQKFRGRVTFTVDKSTSTAYMELSTLRADDTAVYYCARDTARSHYFGSGNDYGMDVWGQGTTVIVSS
VL: DIVMTQSPLSLPVTPGEPASISCRSSQSLLHSNGFNFVDWYLQKPGQSPQLLIYLGSTRASGVPDRFSGSGSGTDFTLEISRVEAEDVGVYYCMQALQFPRTFGQGTKLDIK
notes: also called rANDV-5; ANDV-5 IgG; source: ExpiCHO cells, transiently transfected, purified (HiTrap MabSelectSure); copies: 2 + 2
- binding result [1]: binds
- binding result [2]: binds
- binding result [3]: no binding
- binding result [4]: no binding

B3: ANDV-5 Fab (Fab, V domains shown)
VH: QVQLLQSGAEVKKPGSSVRVSCQSSGDIYNYYGISWVRQAPGQGLEWMGGIIPVYGRPNYVQKFRGRVTFTVDKSTSTAYMELSTLRADDTAVYYCARDTARSHYFGSGNDYGMDVWGQGTTVIVSS
VL: DIVMTQSPLSLPVTPGEPASISCRSSQSLLHSNGFNFVDWYLQKPGQSPQLLIYLGSTRASGVPDRFSGSGSGTDFTLEISRVEAEDVGVYYCMQALQFPRTFGQGTKLDIK
notes: also called Fab ANDV-5; Fab form of ANDV-5; source: ExpiCHO cells, transiently transfected, purified (CaptureSelect CH1-XL)
- binding result [1]: binds
